According to publication PMC10185811, “FAT10 and NUB1L cooperate to activate the 26S proteasome” (Life Science Alliance, 2023):

What was measured:
[1] = target: T1, His6-RPN10 (human, UniProt P55036 1-377); assay: BLI; Octet; His6-RPN10 on the sensor; GST-FAT10 alone or together with NUB1LΔUBL in solution; Octet buffer; 1:1 binding model; conditions: both partners purified
T1 construct: RPN10 (hS5α), subunit of the 19S regulator of the 26S proteasome, human; also called His–RPN10; hS5α; source: recombinant; expression and purification described before (Rani et al, 2012)

[2] = target: T2, NUB1L (NEDD8 ultimate buster 1 long), tagless (human, UniProt Q9Y5A7-1 1-615); assay: BLI; Octet; His6-RPN1 loaded on the nickel sensor; NUB1L, GST-FAT10, NUB1L with GST-FAT10 or NUB1L with GST in solution; Octet buffer (PBS, 0.1% Triton X-100, 1x ROTIBlock); 1:1 binding model; conditions: both partners purified
T2 construct: NUB1L, human, the long splice variant of NUB1 with one UBL and three UBA domains, printed mass 69.1 kD; The long splice variant is meant; which UniProt isoform id holds it was not checked; By my reading of the printed primers the insert begins at Ala2 (AQKKYLQ) and runs to the stop codon; also called NUB1 long; full-length WT NUB1L; source: recombinant, cloned into the pSUMO vector; expression, …
T2 sequence (looked up): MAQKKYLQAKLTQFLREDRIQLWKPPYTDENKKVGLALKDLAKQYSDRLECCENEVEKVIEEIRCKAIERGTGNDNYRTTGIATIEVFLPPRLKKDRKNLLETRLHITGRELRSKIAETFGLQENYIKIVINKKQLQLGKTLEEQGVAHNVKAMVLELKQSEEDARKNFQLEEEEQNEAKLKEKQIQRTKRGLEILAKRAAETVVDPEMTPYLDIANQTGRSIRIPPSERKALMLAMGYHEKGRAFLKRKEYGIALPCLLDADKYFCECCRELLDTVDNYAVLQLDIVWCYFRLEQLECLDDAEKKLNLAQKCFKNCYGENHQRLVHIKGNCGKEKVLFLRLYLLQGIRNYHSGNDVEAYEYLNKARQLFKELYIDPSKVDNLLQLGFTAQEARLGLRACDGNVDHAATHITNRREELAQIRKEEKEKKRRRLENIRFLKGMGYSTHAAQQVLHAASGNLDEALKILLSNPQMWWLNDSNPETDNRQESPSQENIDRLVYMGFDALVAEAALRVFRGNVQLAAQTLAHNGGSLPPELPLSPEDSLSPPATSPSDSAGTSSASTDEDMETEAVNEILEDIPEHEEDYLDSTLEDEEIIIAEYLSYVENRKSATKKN

T1 sequence (P55036 whole entry): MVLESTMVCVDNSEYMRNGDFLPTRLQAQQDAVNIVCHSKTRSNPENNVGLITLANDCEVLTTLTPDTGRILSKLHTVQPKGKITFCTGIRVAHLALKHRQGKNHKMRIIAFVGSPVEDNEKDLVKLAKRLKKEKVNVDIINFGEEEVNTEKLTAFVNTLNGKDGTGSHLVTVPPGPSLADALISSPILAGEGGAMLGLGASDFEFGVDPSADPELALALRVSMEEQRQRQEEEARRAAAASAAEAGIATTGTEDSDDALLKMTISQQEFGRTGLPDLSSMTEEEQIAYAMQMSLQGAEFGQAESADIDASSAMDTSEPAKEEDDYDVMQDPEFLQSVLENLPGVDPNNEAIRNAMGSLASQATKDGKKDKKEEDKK

B1: GST-FAT10 (natural protein, human, UniProt O15205 1-165, looked up)
chain: MAPNASCLCVHVRSEEWDLMTFDANPYDSVKKIKEHVRSKTKVPVQDQVLLLGSKILKPRRSLSSYGIDKEKTIHLTLKVVKPSDEELPLFLVESGDEAKRHLLQVRRSSSVAQVKAMIETKTGIIPETQIVTCNGKRLEDGKMMADYGIRKGNLLFLACYCIGG
notes: FAT10 (HLA-F adjacent transcript 10), human; source: recombinant; expression and purification previously described (Schmidtke et al, 2006)
B1: binds [1]; binds [2].
